In article PMC11098434, “The effect of TG2-inhibitory monoclonal antibody zampilimab on tissue fibrosis in human in vitro and primate in vivo models of chronic kidney disease” (PLOS ONE, 2024):

Tests used:
zampilimab (human) [1] = test: SPR; as the SPR with calcium (antibody captured by anti-human Fc, TG2 flowed over) but in the absence of calcium (-Ca2+); buffer of this condition not detailed
zampilimab (human) [2] = test: SPR; BIAcore T200; test antibody captured (~100-200 RU) by goat anti-human IgG Fc F(ab')2 immobilised on a CM5 chip; TG2 titrated over it at 100 nM to 6.25 nM, 600 s association, up to 3200 s dissociation; 10 mM HEPES pH 7.4, 0.15 M NaCl, 0.005% Surfactant P20, 2 mM CaCl2 (+Ca2+); 1:1 fit
[3] = target: cynomolgus monkey transglutaminase 2 (cynomolgus monkey)
human transglutaminase 2 [4] = target: T1, human transglutaminase 2 (Homo sapiens, UniProt P21980); test: cell-based or functional assay
T1 sequence (P21980 whole entry): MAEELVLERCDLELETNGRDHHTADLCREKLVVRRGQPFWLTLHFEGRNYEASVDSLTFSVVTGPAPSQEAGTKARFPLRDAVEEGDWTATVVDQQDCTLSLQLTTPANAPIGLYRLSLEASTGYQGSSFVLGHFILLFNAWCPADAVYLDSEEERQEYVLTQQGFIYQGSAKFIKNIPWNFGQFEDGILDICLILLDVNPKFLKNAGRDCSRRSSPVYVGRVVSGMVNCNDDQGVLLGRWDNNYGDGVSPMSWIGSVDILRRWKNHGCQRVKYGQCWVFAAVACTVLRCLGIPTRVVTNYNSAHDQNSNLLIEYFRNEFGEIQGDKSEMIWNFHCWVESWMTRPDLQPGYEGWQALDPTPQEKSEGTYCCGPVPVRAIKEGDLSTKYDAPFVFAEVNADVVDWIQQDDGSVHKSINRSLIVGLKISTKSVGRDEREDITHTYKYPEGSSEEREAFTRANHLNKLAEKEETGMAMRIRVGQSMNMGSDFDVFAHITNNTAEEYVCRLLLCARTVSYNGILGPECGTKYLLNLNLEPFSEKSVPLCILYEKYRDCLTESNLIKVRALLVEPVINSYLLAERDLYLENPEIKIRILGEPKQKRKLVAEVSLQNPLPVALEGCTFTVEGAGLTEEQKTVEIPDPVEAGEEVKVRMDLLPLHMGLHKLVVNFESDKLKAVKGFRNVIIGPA

human transglutaminase 2 [5] = target: T1, human transglutaminase 2; test: cell-based or functional assay; remark: listed apart in the source
[6] = target: rabbit transglutaminase 2 (Oryctolagus cuniculus (rabbit), UniProt A0A5F9DRZ3); test: cell-based or functional assay
TG7 = target: T2, TG7 (Homo sapiens (assumed), UniProt Q96PF1); test: ELISA; ELISA of the humanized antibodies on TG2 and other TG family members; antibody up to 100 nM; format not described
T2 construct: transglutaminase family member TG7; also called transglutaminase 7
T2 sequence (Q96PF1 whole entry): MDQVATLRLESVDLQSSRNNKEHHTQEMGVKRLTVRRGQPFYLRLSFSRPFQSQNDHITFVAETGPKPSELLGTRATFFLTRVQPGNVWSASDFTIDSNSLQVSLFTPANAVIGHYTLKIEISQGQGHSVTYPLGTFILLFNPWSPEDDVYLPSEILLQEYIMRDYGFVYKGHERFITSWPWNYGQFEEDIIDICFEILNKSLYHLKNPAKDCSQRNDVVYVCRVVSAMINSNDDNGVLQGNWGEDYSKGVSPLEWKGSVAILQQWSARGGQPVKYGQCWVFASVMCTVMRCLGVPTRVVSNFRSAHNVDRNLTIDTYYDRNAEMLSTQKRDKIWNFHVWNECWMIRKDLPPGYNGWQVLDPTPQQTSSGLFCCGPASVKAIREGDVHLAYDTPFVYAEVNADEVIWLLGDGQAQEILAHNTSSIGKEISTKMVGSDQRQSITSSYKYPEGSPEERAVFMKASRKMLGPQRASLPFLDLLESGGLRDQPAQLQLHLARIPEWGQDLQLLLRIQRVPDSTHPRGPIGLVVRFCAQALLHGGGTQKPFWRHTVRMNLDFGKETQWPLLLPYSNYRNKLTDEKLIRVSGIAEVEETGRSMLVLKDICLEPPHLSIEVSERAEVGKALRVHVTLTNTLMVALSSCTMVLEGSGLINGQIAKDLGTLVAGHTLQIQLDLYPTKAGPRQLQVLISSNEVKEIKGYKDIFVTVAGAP

[7] = target: T3, TG2 (as used in the ELISA of the humanized antibodies) (Homo sapiens (assumed), UniProt P21980); test: as above
T3 construct: transglutaminase 2 (TG2); also called transglutaminase 2
T3 sequence (P21980 whole entry): as the sequence (P21980 whole entry) above

TG1 = target: T4, TG1 (Homo sapiens (assumed), UniProt P22735); test: as above
T4 construct: transglutaminase family member TG1; also called transglutaminase 1
T4 sequence (P22735 whole entry): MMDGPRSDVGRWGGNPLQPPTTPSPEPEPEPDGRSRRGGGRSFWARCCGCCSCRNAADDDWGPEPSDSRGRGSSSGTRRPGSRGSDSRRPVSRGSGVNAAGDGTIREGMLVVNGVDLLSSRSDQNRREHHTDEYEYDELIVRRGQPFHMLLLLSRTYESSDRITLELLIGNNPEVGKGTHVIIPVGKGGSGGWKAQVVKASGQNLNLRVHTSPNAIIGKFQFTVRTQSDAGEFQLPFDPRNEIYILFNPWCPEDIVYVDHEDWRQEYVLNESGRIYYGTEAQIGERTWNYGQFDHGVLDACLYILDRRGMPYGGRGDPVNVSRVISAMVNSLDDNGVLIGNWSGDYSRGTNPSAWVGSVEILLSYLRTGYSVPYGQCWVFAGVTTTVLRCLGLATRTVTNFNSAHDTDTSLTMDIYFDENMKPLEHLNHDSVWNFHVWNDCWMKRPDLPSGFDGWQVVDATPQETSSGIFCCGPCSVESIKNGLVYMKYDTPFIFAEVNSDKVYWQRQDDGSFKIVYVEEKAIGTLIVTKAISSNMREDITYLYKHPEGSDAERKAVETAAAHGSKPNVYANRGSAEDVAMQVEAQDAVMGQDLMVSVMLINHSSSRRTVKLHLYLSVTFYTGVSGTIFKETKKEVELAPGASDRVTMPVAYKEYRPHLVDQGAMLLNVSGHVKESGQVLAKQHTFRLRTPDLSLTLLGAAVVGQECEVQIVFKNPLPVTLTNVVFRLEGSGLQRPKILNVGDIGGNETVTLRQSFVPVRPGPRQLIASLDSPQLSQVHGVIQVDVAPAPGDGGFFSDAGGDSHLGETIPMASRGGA

TG3 = target: T5, TG3 (Homo sapiens (assumed), UniProt Q08188); test: as above
T5 construct: transglutaminase family member TG3; also called transglutaminase 3
T5 sequence (Q08188 whole entry): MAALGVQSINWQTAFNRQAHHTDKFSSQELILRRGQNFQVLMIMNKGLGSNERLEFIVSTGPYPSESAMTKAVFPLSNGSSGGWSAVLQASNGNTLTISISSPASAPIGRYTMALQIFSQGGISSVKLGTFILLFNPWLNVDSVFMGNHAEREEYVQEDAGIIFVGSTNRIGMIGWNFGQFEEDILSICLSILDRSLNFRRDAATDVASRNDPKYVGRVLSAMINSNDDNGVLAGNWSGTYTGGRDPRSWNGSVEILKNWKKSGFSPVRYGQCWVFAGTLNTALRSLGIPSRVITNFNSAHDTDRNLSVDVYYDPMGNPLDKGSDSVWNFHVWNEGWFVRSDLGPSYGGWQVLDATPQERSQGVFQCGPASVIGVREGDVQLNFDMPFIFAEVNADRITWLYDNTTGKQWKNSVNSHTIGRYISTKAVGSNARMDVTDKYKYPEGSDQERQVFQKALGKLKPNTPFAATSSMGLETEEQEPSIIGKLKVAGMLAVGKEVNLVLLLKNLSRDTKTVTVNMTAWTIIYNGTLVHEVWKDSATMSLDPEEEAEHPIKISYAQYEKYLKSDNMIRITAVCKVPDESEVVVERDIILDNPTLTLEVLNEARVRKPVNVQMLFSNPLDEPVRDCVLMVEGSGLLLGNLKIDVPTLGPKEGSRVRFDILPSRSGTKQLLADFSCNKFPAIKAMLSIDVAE

TG5 = target: T6, TG5 (Homo sapiens (assumed), UniProt O43548); test: as above
T6 construct: transglutaminase family member TG5; also called transglutaminase 5
T6 sequence (O43548 whole entry): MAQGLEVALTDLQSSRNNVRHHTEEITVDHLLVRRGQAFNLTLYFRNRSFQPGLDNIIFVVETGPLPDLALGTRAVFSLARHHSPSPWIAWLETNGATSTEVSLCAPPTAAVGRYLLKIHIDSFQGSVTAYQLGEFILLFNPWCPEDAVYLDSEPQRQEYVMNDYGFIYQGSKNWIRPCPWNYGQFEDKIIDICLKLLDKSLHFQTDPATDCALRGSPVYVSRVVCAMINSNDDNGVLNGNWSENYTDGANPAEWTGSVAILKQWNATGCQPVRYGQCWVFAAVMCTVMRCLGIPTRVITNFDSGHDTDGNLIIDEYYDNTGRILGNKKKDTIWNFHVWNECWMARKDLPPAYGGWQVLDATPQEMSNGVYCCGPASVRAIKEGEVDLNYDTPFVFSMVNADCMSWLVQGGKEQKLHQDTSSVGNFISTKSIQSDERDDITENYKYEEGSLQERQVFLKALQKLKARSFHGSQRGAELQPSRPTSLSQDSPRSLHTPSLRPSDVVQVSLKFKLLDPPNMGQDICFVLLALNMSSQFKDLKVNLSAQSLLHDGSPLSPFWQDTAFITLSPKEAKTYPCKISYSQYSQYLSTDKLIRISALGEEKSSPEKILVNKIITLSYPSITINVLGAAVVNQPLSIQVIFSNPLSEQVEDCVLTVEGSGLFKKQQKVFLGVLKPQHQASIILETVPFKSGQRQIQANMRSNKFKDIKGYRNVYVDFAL

human transglutaminase 2 [8] = target: T1, human transglutaminase 2; test: SPR; as the SPR with calcium (antibody captured by anti-human Fc, TG2 flowed over) but in the absence of calcium (-Ca2+); buffer of this condition not detailed; settings: both partners purified
human transglutaminase 2 [9] = target: T1, human transglutaminase 2; test: SPR; BIAcore T200; test antibody captured (~100-200 RU) by goat anti-human IgG Fc F(ab')2 immobilised on a CM5 chip; TG2 titrated over it at 100 nM to 6.25 nM, 600 s association, up to 3200 s dissociation; 10 mM HEPES pH 7.4, 0.15 M NaCl, 0.005% Surfactant P20, 2 mM CaCl2 (+Ca2+); 1:1 fit; settings: both partners purified
[10] = target: rabbit transglutaminase 2 (rabbit)
human transglutaminase 2 [11] = target: T1, human transglutaminase 2

Molecule | IC50 of inhibition of TG2 activity (KxD assay on recombinant protein by the text; biotin cadaverine incorporation by the table's footnote) [3] [pM] | IC50 of inhibition of TG2 activity (KxD assay on recombinant protein by the text; biotin cadaverine incorporation by the table's footnote) (human transglutaminase 2 [5]) [pM] | binding result (TG7) | EC50 [7] [pM] | binding result (TG1) | binding result (TG3) | binding result (TG5) | Kd (human transglutaminase 2 [9]) [pM] | binding result (human transglutaminase 2 [11]) | other results
cynomolgus monkey transglutaminase 2 (enzyme) | – | – | – | – | – | – | – | – | – | Kd (zampilimab (human) [1]): < 50 pM; Kd (zampilimab (human) [2]): < 37 pM
zampilimab (antibody, V domains shown, humanized DC1 VH; DC1 CDRs grafted on the human framework AF062260 with back mutation of the 5 Å Proximity residues; human heavy chain constant region; humanized DC1 VK; DC1 CDRs grafted on the human framework AF193851 with back mutation of the 5 Å Proximity residues; The discussion speaks of zampilimab as an IgG4P antibody in the monkey study; also called hDC1; UCB7858; source: Expi293 cells, …) VH: EVQLLESGGGLVQPGGSLRLSCAASGFTLSTHAMSWVRQAPGKGLEWVATISSGGRSTYYPDSVKGRFTISRDNSKNTLYLQMNSLRAEDTAVYFCARLISTYWGQGTLVTVSS VL: DITMTQSPSSLSASVGDRVTITCKASQDINSYLTWFQQKPGKAPKILIYLVNRLVDGVPSRFSGSGSGQDYALTISSLQPEDFATYYCLQYDDFPYTFGQGTKVEIK | 220 | 250 | no binding (tested: 100 nM) | ~20 | no binding (tested: 100 nM) | no binding (tested: 100 nM) | no binding (tested: 100 nM) | < 50 | – | IC50 of inhibition of extracellular TG activity (biotin cadaverine incorporation) in primary human RPTEC induced with TGF-β1, four independent studies (human transglutaminase 2 [4]): 119000 pM; IC50 of inhibition of TG2 activity (KxD assay on recombinant protein by the text; biotin cadaverine incorporation by the table's footnote) [6]: 103000 pM; Kd (human transglutaminase 2 [8]): < 107 pM
hBB7 (antibody, V domains shown, humanized BB7 VH; BB7 CDRs grafted on the human framework AF062260 with back mutation of the 5 Å Proximity residues; human heavy chain constant region; humanized BB7 VK; BB7 CDRs grafted on the human framework AF193851 with back mutation of the 5 Å Proximity residues; also called humanized BB7; source: Expi293 cells, co-transfected heavy and kappa light chain vectors, purified from supernatant …) VH: EVQLLESGGGLVQPGGSLRLSCAASGIIFSSSAMSWVRQAPGKGLEWVATISSGGRSTYYPDSVKGRFTVSRDSSKNTLYLQMNSLRAEDTAVYYCAKLISPYWGQGTLVTVSS VL: DIKMTQSPSSLSASVGDRVTITCKASQDINSYLTWFQQKPGKAPKTLIYLTNRLMDGVPSRFSGSGSGQEFLLTISSLQPEDFATYYCLQYVDFPYTFGQGTKVEIK | 250 | 280 | no binding (tested: 100 nM) | ~20 | no binding (tested: 100 nM) | no binding (tested: 100 nM) | no binding (tested: 100 nM) | < 60 | – | IC50 of inhibition of TG2 activity (KxD assay on recombinant protein by the text; biotin cadaverine incorporation by the table's footnote) [10]: 6590 pM
mBB7 (antibody, V domains shown) VH: AVQLVESGGGLVKPGGSLKLSCAASGIIFSSSAMSWVRQTPEKRLEWVATISSGGRSTYYPDSVKGRFTVSRDSAKNTLYLQMDSLRSEDTAIYYCAKLISPYWGQGTTLTVSS VL: AIKMTQSPSSMYASLGERVIITCKASQDINSYLTWFQQKPGKSPKTLIYLTNRLMDGVPSRFSGSGSGQEFLLTISGLEHEDMGIYYCLQYVDFPYTFGGGTKLEIK | – | – | – | – | – | – | – | – | binds | –
mDC1 (antibody, V domains shown) VH: EVQLVESGGGLVKPGGSLKLSCAASGFTLSTHAMSWVRQTPEKRLEWVATISSGGRSTYYPDSVKGRFTISRDNVKNTLYLQLSSLRSEDTAVYFCARLISTYWGQGTTLTVSS VL: DITMTQSPSSIYASLGERVTITCKASQDINSYLTWFQQKPGKSPKILIYLVNRLVDGVPSRFSGSGSGQDYALTISSLEYEDMGIYYCLQYDDFPYTFGGGTKLEIK | – | – | – | – | – | – | – | – | binds | –
